From paper PMC6212770 (Nucleic Acids Research, 2018)

What was measured:
[1] = target: T1, HermesΔ transposase (UniProt Q25438 79-612, C519S;del497-516); assay: X-ray crystallography; no metal ions; Complex dialyzed at 4°C in 25 mM HEPES pH 7.5, 0.3 mM TCEP, 0.5 M then 250 mM NaCl, with or without 5 mM MgCl2; DNA:protein 1:1.05 as printed
T1 sequence: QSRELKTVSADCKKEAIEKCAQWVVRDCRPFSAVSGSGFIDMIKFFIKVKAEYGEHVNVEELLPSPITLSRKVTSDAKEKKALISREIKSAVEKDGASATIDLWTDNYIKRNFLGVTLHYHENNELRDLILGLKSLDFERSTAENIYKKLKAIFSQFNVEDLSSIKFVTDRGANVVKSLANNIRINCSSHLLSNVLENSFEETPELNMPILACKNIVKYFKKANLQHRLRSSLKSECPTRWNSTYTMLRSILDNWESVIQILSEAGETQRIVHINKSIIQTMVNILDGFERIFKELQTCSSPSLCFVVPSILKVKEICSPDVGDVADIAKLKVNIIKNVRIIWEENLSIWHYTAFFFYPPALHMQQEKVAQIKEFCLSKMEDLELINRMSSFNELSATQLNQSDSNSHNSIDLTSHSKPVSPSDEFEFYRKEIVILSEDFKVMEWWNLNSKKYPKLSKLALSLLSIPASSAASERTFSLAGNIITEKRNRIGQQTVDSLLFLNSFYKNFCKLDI

[2] = target: the molecule itself; assay: crystal structure; HermesΔ co-crystallised with annealed DNA(C:G) or DNA(A:T) oligonucleotides, hanging drops at 4°C, with or without a soak in 8 mM CaCl2 or MnCl2; four structures at 2.85-3.2 Å
[3] = target: T1, HermesΔ transposase; assay: X-ray crystallography; 8 mM Mn2+ soak, 48 h; two Mn2+ in active site, third Mn2+ at N185; Complex dialyzed at 4°C in 25 mM HEPES pH 7.5, 0.3 mM TCEP, 0.5 M then 250 mM NaCl, with or without 5 mM MgCl2; DNA:protein 1:1.05 as printed

B1: DNA(C:G) (dsDNA)
DNA 1: GCGTGAC
DNA 2: AGAGAACAACAACAAG
DNA 3: CTTGTTGTTGTTCTCTGGGTCACGC
B1: binds [1].

B2: Hermes_(79-612Δ497-516) (enzyme, Musca domestica, UniProt Q25442 79-612, looked up)
chain: QSRELKTVSADCKKEAIEKCAQWVVRDCRPFSAVSGSGFIDMIKFFIKVGAEYGEHVNVEELLPSPITLSRKVTSDAKEKKALISREIKSAVEKDGASATIDLWTDNYIKRNFLGVTLHYHENNELRDLILGLKSLDFERSTAENIYKKLKAIFLQFNVEDLSSIKFVTDRGANVVKSLANNIRINCSSHLLSNVLENSFEETPELNVPILACKNIVKYFKKANLQHRLRSSLKSECPTRWNSTYTMLRSILDNWESVIQILSEAGETQRIVHINKSIIQTMVNILDGFERIFKELQTCSSPSLCFVVPSILKVKEICSPDVGDVADIAKLKVNIIKNVRIIWEENLSIWHYTAFFFYPPALHMQQEKVAQIKEFCLSKMEDLELINRMSSFNELSATQLNQSDSNSHNSIDLTSHSKPVSPSDEFEFYRKEIVILSEDFKVMEWWNLNSKKYPKLSKLALSLLSIPASSAASERTFSLAGNIITEKRNRIGQQTVDSLLFLNSFYKNFCKLDI
B2: binds [2].

B3: DNA(A:T) (dsDNA)
DNA 1: GCGTGAA
DNA 2: AGAGAACAACAACAAG
DNA 3: CTTGTTGTTGTTCTCTGGTTCACGC
B3: binds [3].
